# Measurements: patent US20220160939A1, “SELF-ASSEMBLING PEPTIDES AS BRONCHIAL OBSTRUCTION AGENTS” (3-D MATRIX, LTD., priority 2014, published 2022)
# Where no end group is shown, it is not given here.
# Assays:
# Type in all cases: physicochemical
# [1] = Appearance of 1.5% peptide solutions with various salts at room temperature; details: for Appearance: room temperature
# Experimental: The effect of salt ionic strength level on the properties of peptide solutions was evaluated to identify optimized salt ionic strength levels for the peptides as described herein. Increasing the salt ionic strength level of PuraMatrix® (SEQ ID NO:1) and other peptides may generally improve its function and mechanical strength for various clinical applications. To adjust the salt ionic strength of the peptide solutions by way of example, various salt buffer solutions including NaCl, KCl, MgCl2, CaCl2 and DPBS (10×) were added to 2 mL of 1.5% peptide solutions.
# [2] = Gelation of peptide solutions after saline buffer treatment, time sweep test; details: saline buffer (0.15 M of NaCl), no pH change; IEIK13 1.5%, KLD12 1.5%, PuraMatrix 2.5%
# Experimental: The effect of salt ionic strength level surrounding peptides in solution on the properties of peptide solutions was evaluated to identify the possibility of peptide gelation when the peptide solution is placed into the environment where salt ionic strength level is high. […] Without pH effect, the effect of saline treatment on gelation of peptide solutions were evaluated. […] This is because IEIK13 (SEQ ID NO:2) is much more sensitive to salt ionic strength levels. Fast gelation of IEIK13 (SEQ ID NO:2) at the salt ionic strength level similar to body fluid isotonic salt level may generally improve its function and gelation speed for various clinical applications. The results are shown in FIG. 19 for IEIK13 (SEQ ID NO:2), KLD12 (SEQ ID NO:3) and PuraMatrix® (SEQ ID NO:1) solutions. Time sweep tests were performed at 1 rad/sec and at 1 Pa with 20 mm plates and 500 μm gap distance. […]
# [3] = pH and appearance of 2.5% peptide solutions after adding 0.1 N NaOH
# Experimental: To adjust the pH level of the peptide solutions by way of example, 0.1 N NaOH was added to 2 mL of 2.5% peptide solutions and their pH and appearance were measured.
# [4] = Salt ionic strength plus pH adjustment: appearance and rheological properties; details: 0.9% NaCl (ionic strength: 0.15 M) at pH 3.4 adjusted with NaOH
# From the text: In accordance with one or more embodiments, IEIK13 (SEQ ID NO:2), KLD12 (SEQ ID NO:3), and PuraMatrix® (SEQ ID NO:1) may be dissolved both in salt buffer such as NaCl and at an elevated pH level adjusted with alkali salt buffer such as NaOH to keep their salt ionic strength under their critical salt points as well as their pH level to about 2.5˜4.0, so that they may have stiffer properties. With respect to PuraMatrix® (SEQ ID NO:1), […] and IEIK13 (SEQ ID NO:2), the peptide solutions are still clear with 0.9% NaCl (ionic strength: 0.15 M) at pH 3.4 adjusted with NaOH. The rheological property of PuraMatrix® (SEQ ID NO:1) with 0.9% NaCl (ionic strength: 0.15 M) at pH 3.4 was stiffer than those of PuraMatrix® (SEQ ID NO:1) control and PuraMatrix® (SEQ ID NO:1) with only NaCl 0.9%. The effect of salt ionic strength and pH adjustment on the rheological properties of PuraMatrix® (SEQ ID NO:1) 2.5% solution are shown in FIG. 20. Frequency sweep tests were performed from 1 rad/sec to 10 rad/sec at 1 Pa and the storage modulus at 1 rad/sec was selected for data.
sequence,measurement,setting,value
KLDLKLDLKLDL [KLD12],critical salt ionic strengths at which peptides become cloudy,[1],0.3˜0.4 M
same,Appearance,"[1]; CaCl2 0 M, ionic strength 0 M, conc. 1.5%","Clear, thick gel"
same,Appearance,"[1]; CaCl2 0.05 M, ionic strength 0.15 M, conc. 1.48%","Clear, thick, stiffer gel"
same,Appearance,"[1]; CaCl2 0.067 M, ionic strength 0.2 M, conc. 1.47%","Clear, thick, stiffer gel"
same,Appearance,"[1]; CaCl2 0.083 M, ionic strength 0.25 M, conc. 1.46%","Clear, thick, stiffer gel"
same,Appearance,"[1]; CaCl2 0.1 M, ionic strength 0.3 M, conc. 1.45%","Clear, thick, stiffer gel"
same,Appearance,"[1]; CaCl2 0.117 M, ionic strength 0.35 M, conc. 1.44%","Clear, thick, stiffer gel"
same,Appearance,"[1]; CaCl2 0.133 M, ionic strength 0.4 M, conc. 1.43%","Slightly cloudy, thick, stiffer gel"
same,Appearance,"[1]; CaCl2 0.15 M, ionic strength 0.45 M, conc. 1.43%","Slightly cloudy, brittle gel"
same,Appearance,"[1]; CaCl2 0.167 M, ionic strength 0.5 M, conc. 1.42%","Cloudy, phase-separated"
same,Appearance,"[1]; KCl 0 M, ionic strength 0 M, conc. 1.5%","Clear, thick gel"
same,Appearance,"[1]; KCl 0.05 M, ionic strength 0.5 M, conc. 1.48%","Clear, thick, stiffer gel"
same,Appearance,"[1]; KCl 0.1 M, ionic strength 0.1 M, conc. 1.45%","Clear, thick, stiffer gel"
same,Appearance,"[1]; KCl 0.15 M, ionic strength 0.15 M, conc. 1.43%","Clear, thick, stiffer gel"
same,Appearance,"[1]; KCl 0.2 M, ionic strength 0.2 M, conc. 1.4%","Clear, thick, stiffer gel"
same,Appearance,"[1]; KCl 0.25 M, ionic strength 0.25 M, conc. 1.38%","Clear, thick, stiffer gel"
same,Appearance,"[1]; KCl 0.3 M, ionic strength 0.3 M, conc. 1.35%","Slightly cloudy, thick, stiffer gel"
same,Appearance,"[1]; KCl 0.35 M, ionic strength 0.35 M, conc. 1.32%","Slightly cloudy, brittle gel"
same,Appearance,"[1]; KCl 0.4 M, ionic strength 0.4 M, conc. 1.3%","Cloudy, phase-separated"
same,Appearance,"[1]; MgCl2 0 M, ionic strength 0 M, conc. 1.5%","Clear, thick gel"
same,Appearance,"[1]; MgCl2 0.05 M, ionic strength 0.15 M, conc. 1.48%","Clear, thick, stiffer gel"
same,Appearance,"[1]; MgCl2 0.067 M, ionic strength 0.2 M, conc. 1.47%","Clear, thick, stiffer gel"
same,Appearance,"[1]; MgCl2 0.083 M, ionic strength 0.25 M, conc. 1.46%","Clear, thick, stiffer gel"
same,Appearance,"[1]; MgCl2 0.1 M, ionic strength 0.3 M, conc. 1.45%","Clear, thick, stiffer gel"
same,Appearance,"[1]; MgCl2 0.117 M, ionic strength 0.35 M, conc. 1.44%","Clear, thick, stiffer gel"
same,Appearance,"[1]; MgCl2 0.133 M, ionic strength 0.4 M, conc. 1.43%","Slightly cloudy, thick, stiffer gel"
same,Appearance,"[1]; MgCl2 0.15 M, ionic strength 0.45 M, conc. 1.43%","Slightly cloudy, brittle gel"
same,Appearance,"[1]; MgCl2 0.167 M, ionic strength 0.5 M, conc. 1.42%","Cloudy, phase-separated"
same,Appearance,"[1]; NaCl 0 M, ionic strength 0 M, conc. 1.5%","Clear, thick gel"
same,Appearance,"[1]; NaCl 0.05 M, ionic strength 0.5 M, conc. 1.48%","Clear, thick, stiffer gel"
same,Appearance,"[1]; NaCl 0.1 M, ionic strength 0.1 M, conc. 1.45%","Clear, thick, stiffer gel"
same,Appearance,"[1]; NaCl 0.15 M, ionic strength 0.15 M, conc. 1.43%","Clear, thick, stiffer gel"
same,Appearance,"[1]; NaCl 0.2 M, ionic strength 0.2 M, conc. 1.4%","Clear, thick, stiffer gel"
same,Appearance,"[1]; NaCl 0.25 M, ionic strength 0.25 M, conc. 1.38%","Clear, thick, stiffer gel"
same,Appearance,"[1]; NaCl 0.3 M, ionic strength 0.3 M, conc. 1.35%","Slightly cloudy, thick, stiffer gel"
same,Appearance,"[1]; NaCl 0.35 M, ionic strength 0.35 M, conc. 1.32%","Slightly cloudy, brittle gel"
same,Appearance,"[1]; NaCl 0.4 M, ionic strength 0.4 M, conc. 1.3%","Cloudy, phase-separated"
same,"salt ionic strength increase that did not change the clear color, while apparent stiffness increased","[1]; depending on different salts, 1.5% peptide solutions",0.25˜0.35 M
same,gelation after saline buffer treatment,[2],no or negligible gelation
same,Appearance,"[3]; 0.1N NaOH 150 μL/mL added in 2.5% solution, conc. 2.17%","Clear, thick and stiffer gel"
same,Appearance,"[3]; 0.1N NaOH 200 μL/mL added in 2.5% solution, conc. 2.08%","Clear, thick and stiffer gel"
same,Appearance,"[3]; 0.1N NaOH 225 μL/mL added in 2.5% solution, conc. 2.04%","Clear, thick and stiffer gel"
same,Appearance,"[3]; 0.1N NaOH 250 μL/mL added in 2.5% solution, conc. 2.0%","Slightly cloudy, brittle gel"
same,Appearance,"[3]; 0.1N NaOH 350 μL/mL added in 2.5% solution, conc. 1.85%","Cloudy, phase-separated"
same,Peptide solution pH,[3]; NaOH volume and conc. not given,7.0
same,Appearance,"[3]; peptide solution pH 7.0, NaOH volume and conc. not given","Cloudy, phase-separated"
same,appearance of peptide solutions,[4],still clear
